Results as given in paper PMC8060857.

Target: HR-C1 peptide (SARS-CoV (Urbani strain)) (UniProt P59594)
Assay: SDS-PAGE of samples not heated

Substance: HR-C1 peptide (from UniProt P59594 1147-1185)
- stoichiometry N: 3
